# Data reported in a protein production outcome set (Wang et al. 2014).
# Test: label from the status in PepcDB records
# 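Also: failed if final PepcDB status was selected cloned or expressed and not failed if soluble or beyond.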
row,Sequence,protein production
1,MAKYKVGMVSLGCDKNRVDSEIMLGMVQNEYELTNNPKEADIIIVNTCGFIEKAKQESINTILDMAKYKTSHNCKLLIATGCLTQRYGDELLELMPEIDIMLGVNDYAKINEAIMNFINGNNEKVKATNYSDVSINEGLRLITTDKATAYLRIAEGCDNFCTYCIIPKIRGKFRSRALESIVEEAKKLAENGVKELILIAQDTTNYGIDIYGEKKLHLVLRELAKIEGIEWIRVLYCYPEAIYDELIKEISVNDKVCNYLDLPIQHISNNVLKRMGRKTTKEEIIGKINDLRKNVPNIVLRTSLIVGFPGESCEDFNELKDFIKTIKLDKVGVFTYSREEGTPAAIMEDQIDEEVKKAREEEIMLLQKEVSEEINKNKVGREYDVLIEKFNGEYYIGRSYEMAPDIDGCIYVKGNGAKKDQFCKVKIEKALEYDLVGVVCNESCKLEHHHHHH,failed
2,MALAEDDGFYMGVGYQIGGAQQNIDNKGSTLRNNVINNFRQVGVGMAGGNGLLALATNTTMDALLGIGNQIVNTNTTVSNNNAELTQFKKILPQIEQRFETNKNAYSVQALQVYLSNVLYNLVNNSNNGSNNGVVPEYVGIIKVLYGSQNEFSLLATESVVLLNALTRVNLDSNSVFLKGLLAQMQLFNDTSSAKLGQIAENLKNGGAGSMLQKDVKTISDRIATYQENLKQLGGMLKNYDEPYLPQFGPGTSSQHGVINGFGIQVGYKQFFGNKRNIGLRYYAFFDYGFTQLGSLSSAVKANIFTYGAGTDFLWNIFRRVFSDQSLNVGVFGGIQIAGNTWDSSLRGQIENSFKEYPTPTNFQFLFNLGLRAHFASTMHRRFLSASQSIQHGMEFGVKIPAINQRYLRANGADVDYRRLYAFYINYTIGF,failed
3,MALAVYLVPLPGLRASGHAALALLVFAVTMWATEAVPLAVTSLIILFAQPLIGVESFENAVIGFANPILFLMIGGFIMAEAIRKSGLAQRFTYYLLGRLGTSPERGLFVSIFSTGLLSAWIENVVAFAMLLPIIKEIVDIMGCSEPEKGKSNYAKAMILGASFGSLAGGFGTEIGTAPNLMAAAYTSIPFLNWMIFGLPLSIAMLLVTWFLLMRIFPSEVRALENGDALIGERIRMMGSMSRDEKLSAGILLFAILLWVTAGFTGINSYSVSLIAAVMFIFAGVITWKDAQKNIDWGLVVFFGGALSLGSALLKTGAAAWIIDKLVGMLGSDPSTVIVMLVLMAVAVIITQVMSNIALSAILVPLSVTLASAQHQPIGVYAVPVAIACSLSFMLPMADPTVAMAYGSGYVKLRDIPRAGIPIIAVGIILTVLVITTLAAPFIS,failed
4,MALEQTLKKDWYSILGADPSANMSDLKQKYQKLILLYHPDKQSADVPAGTMEECMQKFIEIDQAWKILGNEETKKKYDLQR,not failed
5,MALHSSSDQYGSVAVTIHWLTAVLIVIALLTGFRAAAAEDVTTEAALLRVHLPAAALVLVLTVVRVVWWLGIDDKPEPIDGAPRSQQLIAGTVHLLFYVVVFGMIASGIGMMLASGAAPAIFSRDVPALPEFWHYRPRIPHGLGARLLVLLLIAHLAAALYHHLRGDRVFRRMWFGRNPKS,failed
6,MALKPTIYKFRIALSDMNNDYYDSKNLTIALHPSEKPQRMLARILAFCLNAQKDLEFTKGLSTTEEPDLWHVADDQSITHWIEIGEPEPDRIKKASRLAKQVKVYTYNTKAPVWWEKMSGKFSMLPVSVESFDYDAIDMICQHLDRGTNLSVMITGTSIFVDVNDQHVEVTVKELQSHDAP,not failed
7,MALKTDIRGMIWRYPDYFIVGREQCREFARAVKCDHPAFFSEEAAADLGYDALVAPLTFVTILAKYVQLDFFRHVDVGMETMQIVQVDQRFVFHKPVLAGDKLWARMDIHSVDERFGADIVVTRNLCTNDDGELVMEAYTTLMGQQGDGSARLKWDKESGQVIRTALEHHHHHH,failed
8,MALLRRFIGQKVRTVIQVTGSEIGSVVGKSTDDLQIVVRGSSPPSPLTTYLEVIGIAESDNAIRAETWTNFGNTFDTQNYNELCKLAN,failed
9,MALPQLSIWQPGDGLRKIKYKYHVCLIVIFSVLIRLLFLTDRYLWCDEASSVLISRHSVDNLLFHAAFDVHPPLYYLLLHDWIILLGDSIAAVRSLSLLFGILTVVLVIALTRWLANERTALLAGWFAALMPMAVHYSQETRMYALMGMLTLAAALALMMWIKTPTHNRYLVAYALLMTFSFYTHYFTLFTLIAHWIAVTILSCQSHKTACYLKLPGWWFANLAIAVAYLPWLPVLFNLLTHLAQLRAGNDIGWIPPVTWRDLPAMYWHFFTGNNGQGFPSFILWLAVGGFIGTVGRISLYNGEYERYQLILFCNLVIPVMLVFIISWWMPLFIDRYFFFSSLSIPPLLAVLLTRAKKAVCGFWFILFTLLFGYGSYHNNPEHIDEFKPLVNYINTRHQPNDAVVVSKMFDYLSYVYYNKRDYRTFLYTPPNAHGTSGRPNAYGFGSLFYAQADQTYIDTLTTLSKSYHRVWLVSGGNFSQDYPLPSEWQNIAKFRSGRFQVQLFVIPTQQARQMQ,failed
10,MALQAGVEKGENLVVAAPTGSGKTFIALVAIVNSLARAGGRAFYLVPLKSVAYEKYTSFSILSRMGLKLKISVGDFREGPPEAPVVIATYEKFDSLLRVSPSLARNVSVLIVDEIHSVSDPKRGPILESIVSRMLASAGEAQLVGLSATVPNAGEIAEWIGGKIVESSWRPVPLREYVFKEYKLYSPTGGLREVPRVYGLYDLDLAAEAIEDGGQALVFTYSRRRAVTLAKRAAKRLGRRLSSREARVYSAEASRAEGAPRSVAEELASLIAAGIAYHHAGLPPSLRKTVEEAFRAGAVKVVYSTPTLAAGVNLPARRVVIDSYYRYEAGFREPIRVAEYKQMAGRAGRPGLDEFGEAIIVAERLDRPEDLISGYIRAPPERVESRLAGLRGLRHFILGIVAPEGEVSIGSIEKVSGLTLYSLQRGLPRETIARAVEDLSAWGLVEVKGWRIAATSLGREVAAVYLDPESVPVFREEVKHLSFDNEFDILYLISTMPDMVRLPATRREEERLLEAILDASPRMLSSVDWLGPEEMAAVKTAVVLKLWIDEASEDTIYGEWGVHTGDLLNMVSTAEWIASGLSRIAPYLGLNSKVSHILSVIARRIKHGVKPELLQLVEIPGVGRVRARILFEAGYRSIEDLATARAEDLMRLPLIGPSTARQILEFLGRVDEAREAEAREMLARKGLLSYLEGDAVAGEEGE,failed
11,MALRKIAGLYRIEKFIRERPVEKIRQWRQRYSRPIVNDLFAWPEEQEPCCPPDGPLNKAINYILNRRDELSCFLSDGAVPLDNNICERAIRPVVMGRKAWLFAGSLMAGNRAAQIMSLLETAKRNGLEPHAWLTDVLTRLPEWPEDRLEELLPLEGFTFSG,failed
12,MALRLALSLCVYLLFTQGAQGNTDDFDCVEIYKQPAFQHPLLKDHKIQETFSLDGKIERSNKYNTKEHCPKGTVAILRQRNVSKGVHLNTAEYSGQHFATIETILDGSIYRGAEADISIHDLKLQNNQYSKSQIWLENGPPGQLNSIQAGLAVHPRLYGDSVTRFTIYWTGDGYQKTGCYNTQCPGFVVVSRNSRIGSGFWGTSVYGKTSLTFKLQVFQDGFSGNWALKMFDEVIGYWPKELFSHLNNGASLVRYGGNTFESPDGISPPMGNGFFPVADFKKTAHFNNVVVINSDYKRVYIEGRKIRLYVDSYNCFRATYWGYTKSTGEAFSFGGPGGNCGF,failed
13,MALRTLSTFPSLPRRHTTTRREPNLTVIYRNPTTSIVCKSIANSEPPVSLSERDGFAAAAPTPGERFLENQRAHEAQKVVKKEIKKEKKKKKEEIIARKVVDTSVSCCYGCGAPLQTSDVDSPGFVDLVTYELKKKHHQLRTMICGRCQLLSHGHMITAVGGNGGYPGGKQFVSADELREKLSHLRHEKALIVKLVDIVDFNGSFLARVRDLVGANPIILVITKIDLLPKGTDMNCIGDWVVEVTMRKKLNVLSVHLTSSKSLDGVSGVASEIQKEKKGRDVYILGAANVGKSAFINALLKTMAERDPVAAAAQKYKPIQSAVPGTTLGPIQINAFVGGEKLYDTPGVHLHHRQAAVVHSDDLPALAPQNRLRGQSFDISTLPTQSSSSPKGESLNGYTFFWGGLVRIDILKALPETCFTFYGPKALEIHAVPTKTATAFYEAKLGVLLTPPSGKNQMQEWKGLQSHRLLQIEINDAKRPASDVAISGLGWISIEPIRKTRGTEPRDLNEAEHEIHICVSVPKPVEVFLRPTLPIGTSGTEWYQYRELTDKEEEVRPKWYF,failed
14,MALRVTFVAAARSSPLLAERFDDERPLDQAGWNEALRAAGDLLPLAAAELRYCSPTPRSRATGDAIGCAPLSQLALRACDMGRWRGLTLGEAMAREPAAVDAWLADPRSAPHGGESLLGFITRVGGWLDTRPGEDGDRIVAVAEPSVIRAALVYALKAPPGTYWNLDVRPLSTTTVTGRAGRWSLRFEGTPDQGATRPAFRGGNPL,failed
15,MALTPDQMPDRAEVVFTCNGKAVGKMRNELDVAMVKPFEERFALATDEGAFHGGDASAPPPLALFIAGLTGCVMTQIRAFAKRLKVTVTDLDVECRVVWDWAKAGPVYETGPKSFEIDIILHSPDPIEAQQALIEAAKKGCFLEQTLGQANTIRHRLKVGDTFIDA,not failed
16,MALTTISPHDAQELIARGAKLIDIRDADEYLREHIPEADLAPLSVLEQSGLPAKLRHEQIIFHCQAGKRTSNNADKLAAIAAPAEIFLLEDGIDGWKKAGLPVAVNKSQPLPLMRQVQIAAGGLILIGVVLGYTVNSGFFLLSGFVGAGLLFAGISGFCGMARLLDKMPWNQRA,failed
17,MALVRSLFVSNKILGGSLAGMRKSTSAPKGFLAVYVGESQKKQRYLVLVSYLSQPLFQDLLSKSEEEFGFDHPMGGLTIPCPEDTFLTVTSRIQG,failed
18,MAMEIGEDEWKVCCGSSEFAKQMSTSGPLTSQEAIYTARDIWFNQVNVTDWLEAFSAHPQIGNTPSPSINSDFARRSVSEQSTAFATTSASALQELAEWNVLYKKKFGFIFIICASGRTHAEMLHALKERYENRPIVELEIAAMEQMKITELRMAKLFSDKAKVISETDSSSSPVSTKPQDRLRIIGGHLNVAAEAKAPKRSRPPITTHVLDVSRGAPAAGVEVHLEVWSGTTGPSFVHGGGGVWSSVGTSATDRDGRSGPLMDLVDALNPGTYRISFDTAKYSPGCFFPYVSIVFQVTESQKWEHFHVPLLLAPFSFSTYRGS,failed
19,MAMEKPVLWYIADPMCSWCWGFAPVIENIRQEYSAFLTVKIMPGGLRPGTNTPLLPEKRAQILHHWHSVHITTGQPFTFENALPEGFIYDTEPACRGVVSVSLIEPEKVFPFFAAIQRAFYVGQEDVAQLAILKKLAVDLGIPESRFTPVFQSDEAKQRTLAGFQRVAQWGISGFPALVVESGTDRYLITTGYRPIEALRQLLDTWLQQHGV,not failed
20,MAMMAKHQAVKKIFDQIATKYDLIDTIISLGLDQHWRRVLVSSLGLREGMRCLDCGAGSGKVTELIYFRCGGCDVTALDITDSMFNPELKKYVKFVVSPAESLPFPDASFDRVSSAFLTRNLADIDRYFAEVYRVLRPGGVFVNMDIYNPTRPVISEFFSLYFYRFVPFFGNRATGSKNYTYLANTVKYFHRPSVISQKLADRGFSVEATDLFFGAVYLHRSVKPEGRGLEHHHHHH,failed
